Measured values: patent US20020064828A1

Target: full-length human presenilin 2 (PS2) expressed in HeLa cells (human) (UniProt P49810)
Experiment: cell-based or functional assay

Row | Substance | cell death (floating HeLa cells), fold, on coexpression with PS2
1 | calmyrin-EF-N mutant (D127N) (from UniProt Q99828 2-191) | 1 fold
2 | calmyrin-MYR mutant (G2A, myristoylation-deficient calmyrin) (from UniProt Q99828 3-191) | < 2.09 fold
3 | calmyrin-EF-C mutant (E172Q) (from UniProt Q99828 2-191) | 1.05 fold
